Results: the supplement of paper PMC12764529
± gives the half width of the 95% confidence interval.

Columns and labels:
[1] = folding stability dG unfold from chymotrypsin proteolysis; higher = more stable
How it was run: (§1)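 How resistant each design was to proteolysis was captured as K50, inferred by Bayesian fitting of sequencing counts. Unfolding free energy was then derived relative to a sequence-predicted unfolded-state K50 and a shared folded-state K50, per protease or combined. Digestion used trypsin and chymotrypsin at 11 threefold-diluted concentrations plus a no-protease condition, on mini-proteins under 80 residues without cysteine in a PA-tagged cDNA display construct. Designs were kept only when AlphaFold2 dimer inter-PAE was above 15.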

[2] = folding stability dG unfold from trypsin proteolysis; higher = more stable
How it was run: as §1

[3] = folding stability dG unfold (combined trypsin and chymotrypsin); higher = more stable
How it was run: as §1

| Sequence | folding stability dG unfold [1] | folding stability dG unfold [2] | folding stability dG unfold [3] |
| --- | --- | --- | --- |
| SAGGSKKKEEVKEIDVVLVEVSEEEALKLAEETGKAVIVVFPDGELRIFYPDGTVETIKLPDLEELSAGGSA [r2_34_TrROS_Hall] | 0.0647 ± 0.082 kcal/mol | 0.377 ± 0.062 kcal/mol | 0.296 ± 0.21 kcal/mol |
| SAGGWTIEEIIDAIREAKENGPGQKVEIEIPFGGGPVRVSIEVPPDGRVKIEIQYDNKPIWEIEIPVSAGGS [r16_611_TrROS] | 2.12 ± 0.081 kcal/mol | 1.98 ± 0.14 kcal/mol | 2.02 ± 0.15 kcal/mol |
| SAGGSAGGSVKPGEKVLVRVRNPATGRWEEVVATVNEDGSITIYNKETGKTETIPLKDIELVPSAGGSAGGS [r12_726_TrROS_Hall] | 4.25 ± 0.055 kcal/mol | 4.6 ± 0.17 kcal/mol | 4.37 ± 0.088 kcal/mol |
| SAGGSKKTIELVIKDKKTNKWLKITIEYDEETGEVTVTIYDKNGEVVKEIKMSKDELKKLLEKLGFSAGGSA [r2_115_TrROS_Hall] | 4.37 ± 0.16 kcal/mol | 3.02 ± 0.22 kcal/mol | 4.28 ± 0.36 kcal/mol |
| SAGGMPVLEREFTIPLPDGTPLRVTVRYFPGTGRALVTLRPVGTGEPLATVPLSELPPELRAALAEESAGGS [r8_32_TrMRF] | 3.102 ± 0.026 kcal/mol | 2.42 ± 0.063 kcal/mol | 2.9 ± 0.052 kcal/mol |
| SAGGGKTVVTTTPDGRTVVAAELPDGSVVAVATFPDAPVLATYNPETKTVTVAFFKGGKLVATASDSSSAGG [r13_748_TrMRF] | 0.855 ± 0.11 kcal/mol | 0.698 ± 0.062 kcal/mol | 0.837 ± 0.13 kcal/mol |
| SAGGMETWRIKVDGKEIEVTVEDGKITVTFADGTKVEITLEEGETPEEVAKRLAEELGADKVEIEKVPSAGG [r13_852_TrROS_Hall] | 3.31 ± 0.078 kcal/mol | 3.38 ± 0.48 kcal/mol | 3.3 ± 0.19 kcal/mol |
| SAGMIEIKSEDGSTFRIEFDKETGEVKVEYDKNTGVVKVTLPDGKEVEIEIEGMSLEEVLKKLEELLKKSAG [r5_447_TrROS_Hall] | 1.78 ± 0.13 kcal/mol | 2.01 ± 0.19 kcal/mol | 1.94 ± 0.22 kcal/mol |
| SAGGSAGGSAGGMEVVIPLDKNERYLAYVLGEPKFVEFDPEKGYLVIPNTPPENVIVVKYSAGGSAGGSAGG [r7_200_TrMRF] | 0.418 ± 0.15 kcal/mol | 0.248 ± 0.05 kcal/mol | 0.325 ± 0.1 kcal/mol |
| SAGGSAGGSPWRRIPISSPEQILDWLEEMLPPGFNLTPEMAEQMVDYFLKNFEVDPNGYLWVRSAGGSAGGS [r12_983_TrROS] | 1.82 ± 0.21 kcal/mol | 2.11 ± 0.051 kcal/mol | 1.89 ± 0.14 kcal/mol |
| SAGGSAGGSTLEEVRKIAEEAVKKGYPYVVISAPGGLKKVFKVEEDDIVEIPDSEGYTVELLSSAGGSAGGS [r20_44_TrMRF] | 0.85 ± 0.14 kcal/mol | 0.202 ± 0.07 kcal/mol | 0.52 ± 0.12 kcal/mol |
| SAGGMEVTLRITAEGPEQLEKIQEILDELDVEEVNPTENEVEFRFPGPEPLAKLKEIAEELGLKVEGSAGGS [r16_88_TrMRF] | -0.635 ± 0.28 kcal/mol | -0.457 ± 0.23 kcal/mol | -0.377 ± 0.25 kcal/mol |
| GPPLPVEVDAEVDVVPLPGGPALVVRRPVRFPVTRRIVVVEVVRLPDGSVVARVDVYDPGDGRPRTFTLPLS [r1_261_TrMRF] | 2.373 ± 0.021 kcal/mol | 0.795 ± 0.04 kcal/mol | 1.9 ± 0.043 kcal/mol |
| SAGGSAGGSAPKIIVVKPEDIVEAVKKADPNEKVLLFDPETGEIYEITPDKMEFIEKIPPGESAGGSAGGSA [r18_246_TrMRF] | 0.884 ± 0.039 kcal/mol | 0.0456 ± 0.13 kcal/mol | 0.466 ± 0.22 kcal/mol |
| SAGGSAVIVIETRADDPRLLEAIKKAREEGKPVVVRFPDGKALVFYPEGPVEEVDSPEQLKEAGFGSAGGSA [r15_94_TrMRF] | 1.716 ± 0.011 kcal/mol | 2.19 ± 0.033 kcal/mol | 1.94 ± 0.031 kcal/mol |
| SAGGSAGGSSGPTLTIRYSILVSDSDGNWYALVFEARIYPNGDVEIRYRLYSYKDIPPGASPTSAGGSAGGS [r12_38_TrMRF] | 4.85 ± 0.093 kcal/mol | 4.12 ± 0.16 kcal/mol | 4.7 ± 0.067 kcal/mol |
| GFVLIPFRLDDPDVTAGEIAEEVEKALPPEYGPLRLRVFFEDGSVLELEPGEKLGEHFEPDDEILVLVEGDS [r1_56_TrMRF] | 1.37 ± 0.12 kcal/mol | 1.24 ± 0.042 kcal/mol | 1.22 ± 0.14 kcal/mol |
| SAGGGTYYLIFKITETKTDPKTGKTTTSEKVIVDPLENPGSISAEEIAKLKEELEPKGYTVEIEIKPKSAGG [r13_926_JUSTAS] | 1.41 ± 0.27 kcal/mol | 0.654 ± 0.045 kcal/mol | 1.07 ± 0.23 kcal/mol |
| PWVMIPIRVDDPNMTIREIANEVRKALPPGNKNLKISIMWGDGRRYEIDPGETLKDHFPPGDEFHIMVRLPS [r1_56_TrROS] | 1.3 ± 0.086 kcal/mol | 1.65 ± 0.02 kcal/mol | 1.55 ± 0.048 kcal/mol |
| SAMEVVEERELPDGTTVVTIPDPATGDTVVLVTDPEGKITVYTYPSSTGIPTEEVFPDLSVEEAIARLASAG [r14_760_JUSTAS] | 0.858 ± 0.071 kcal/mol | 0.645 ± 0.046 kcal/mol | 0.775 ± 0.058 kcal/mol |
| SAGAKIVSVEKVNGEKKITIKVKKEGDEIVIVFPKKNAKIEKKKNGTIEITIKEGETVIIVLKVKKKKSAGG [r19_227_TrROS_Hall] | 3.29 ± 0.082 kcal/mol | 1.82 ± 0.051 kcal/mol | 2.99 ± 0.22 kcal/mol |
